Assay results as given in the supplement of paper PMC7877785.
± gives the uncertainty stated by the source.

Experiment: self-splicing fitness, log relative to wild type (ln ratio); higher = more splicing; Tetrahymena group I intron in knt gene, E. coli kanamycin selection, DiMSum; sequences stand for … in CUCUCU…GGAGGGAAAAGUUAUCAGGCAUGCACCUGGUAGCUAGUCUUUAAACCAAUAGAUUGCAUCGGUUUAAAAGGCAAGACCGUCAAAUUGCGGGAAAGGGGUCAACAGCCGUUCAGUACCAAGUCUCAGGGGAAACUUUGAGAUGGCCUUGCAAAGGGUAUGGUAAUAAGCUGACGGACAUGGUCCUAACCACGCAGCCAAGUCCUAAGUCAACAGAUCUUCUGUUGAUAUGGAUGCAGUUCACAGACUAAAUGUCGGUCGGGGAAGAUGUAUUCUUCUCAUAAGAUAUAGUCGGACCUCUCCUUAAUGGGAGCUAGCGGAUGAAGUGAUGCAACACUGGAGCCGCUGGGAACUAAUUUGUAUGCGAAAGUAUAUUGAUUAGUUUUGGAGUACUCGUGGUCG
How it was run: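 Library with all eight P1ex-region intron nucleotides randomised, intron inside the knt kanamycin-resistance gene on pET-22b(+), in E. coli BL21(DE3). Cells grew overnight at 37°C or 30°C on LB agar with or without 25 μg/mL kanamycin (plus 100 μg/mL carbenicillin, 50 μM IPTG, 0.2% rhamnose), in six replicate transformations. Pooled colonies were amplicon-sequenced on Illumina HiSeq 2500. DiMSum fitness is the error-weighted combination of wild-type-normalised replicate fold changes, kanamycin versus none.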

Sequence	self-splicing fitness (ln) (30 °C)	self-splicing fitness (ln) (37 °C)
UGACAGCAAUAUUACGCAGU	-2.63 ± 0.15	-2.13 ± 0.27
UGACAGCAAUAUUACGCCCU	0.0425 ± 0.16	0.0969 ± 0.14
UGACAGCAAUAUUACGGACC	-0.664 ± 0.12	-0.748 ± 0.21
UGACAGCAAUAUUACGGCGC	-2.47 ± 0.15	-1.25 ± 0.15
UGACAGCAAUAUUACGGUUC	-2.92 ± 0.11	-1.79 ± 0.085
UGACAGCAAUAUUACGUAAG	-1.2 ± 0.064	-0.489 ± 0.067
UGACAGCAAUAUUACGUAUA	-2.19 ± 0.092	-0.776 ± 0.096
UGACAGCAAUAUUACGUUUG	-2 ± 0.071	-1.03 ± 0.081
UGAGAGCAAUAUUACGACCA	-1.91 ± 0.14	-1.14 ± 0.21
UGAGAGCAAUAUUACGAGGA	-3.49 ± 0.34	-2.83 ± 0.4
UGAGAGCAAUAUUACGCAGU	-4.62 ± 0.34	-2.41 ± 0.18
UGAGAGCAAUAUUACGCAUC	-4.1 ± 0.46	-1.8 ± 0.19
UGAGAGCAAUAUUACGCUAC	-2.4 ± 0.49	–
UGAGAGCAAUAUUACGCUCA	–	-1.22 ± 0.38
UGAGAGCAAUAUUACGGAGU	-2.89 ± 0.29	–
UGAGAGCAAUAUUACGGAUU	-3.39 ± 0.29	–
UGAGAGCAAUAUUACGGCGU	-4.04 ± 0.35	-2.81 ± 0.34
UGAGAGCAAUAUUACGUACU	–	-1.87 ± 0.25
UGAGAGCAAUAUUACGUCGG	-2.21 ± 0.2	-1.77 ± 0.31
UGAGAGCAAUAUUACGUGCA	-1.53 ± 0.087	-0.611 ± 0.1
UGAGAGCAAUAUUACGUUCG	-2.08 ± 0.13	-1.3 ± 0.15
UGAUAGCAAUAUUACGAAAU	-2.83 ± 0.34	-2.19 ± 0.27

Sequence	self-splicing fitness (ln) (30 °C)	self-splicing fitness (ln) (37 °C)
UGAUAGCAAUAUUACGAAGA	-2.56 ± 0.26	-1.97 ± 0.22
UGAUAGCAAUAUUACGAGAG	-3.29 ± 0.43	-1.65 ± 0.18
UGAUAGCAAUAUUACGAGCA	-0.12 ± 0.094	-0.0253 ± 0.14
UGAUAGCAAUAUUACGAGUC	-3.08 ± 0.22	-3.08 ± 0.4
UGAUAGCAAUAUUACGAUGG	-1.56 ± 0.11	-1.72 ± 0.16
UGAUAGCAAUAUUACGCAAA	-2.25 ± 0.19	-0.0467 ± 0.16
UGAUAGCAAUAUUACGCCUG	0.213 ± 0.14	0.502 ± 0.2
UGAUAGCAAUAUUACGCGGA	-2.4 ± 0.48	-0.465 ± 0.29
UGAUAGCAAUAUUACGGGCU	-2.42 ± 0.13	-2.11 ± 0.14
UGAUAGCAAUAUUACGGGUC	-4.2 ± 0.34	-2.63 ± 0.37
UGAUAGCAAUAUUACGUACC	-1.76 ± 0.2	-1.6 ± 0.26
UGAUAGCAAUAUUACGUCGC	–	-2.13 ± 0.39
UGAUAGCAAUAUUACGUCUA	0.0941 ± 0.089	-0.107 ± 0.094
UGAUAGCAAUAUUACGUGGA	-3.45 ± 0.3	-2.23 ± 0.2
UGAUAGCAAUAUUACGUGGG	-2.86 ± 0.17	-0.621 ± 0.11
UGAUAGCAAUAUUACGUUUA	-2.2 ± 0.12	-0.742 ± 0.1
UGCAAGCAAUAUUACGAAAU	-3.34 ± 0.2	-2.04 ± 0.22
UGCAAGCAAUAUUACGAAGG	-1.6 ± 0.12	-1.47 ± 0.2
UGCAAGCAAUAUUACGAAUA	-1.88 ± 0.12	-1.04 ± 0.13
UGCAAGCAAUAUUACGACAA	-0.541 ± 0.088	0.237 ± 0.1
UGCAAGCAAUAUUACGCAAC	-1.9 ± 0.26	-2.11 ± 0.28
UGCAAGCAAUAUUACGCAGC	-3.6 ± 0.23	-2.58 ± 0.23
